Assay results published in article PMC3788760.

Columns and labels:
[1] = molecular target: human PDI fragment abb’xa’ (human)
[2] = molecular target: a-domain of human PDI (human)
[3] = molecular target: full-length human protein disulfide isomerase (PDI) (human) (UniProt P07237)
[4] = molecular target: human PDI fragment abb’xa’ (human); assay: ITC; 25.0°C; VP-ITC; 200 µM Tau244–372 (or 40 µM full-length Tau) in the syringe injected into 8.1 µM PDI or fragment (or 3.24 µM PDI) in the cell; 10 mM HEPES pH 7.4, 100 mM NaCl, no DTT; single set of identical sites model
[5] = molecular target: a-domain of human PDI (human); assay: as above
[6] = molecular target: full-length human protein disulfide isomerase (PDI) (human) (UniProt P07237); assay: as above
[7] = molecular target: a-domain of human PDI (human); assay: ITC; 37.0°C; VP-ITC; 200 µM Tau244–372 in the syringe injected into 8.1 µM full-length PDI or domain a in the cell; 10 mM HEPES pH 7.4, 100 mM NaCl, no DTT; single set of identical sites model
[8] = molecular target: full-length human protein disulfide isomerase (PDI) (human) (UniProt P07237); assay: as above

Chain of human Tau fragment Tau244–372 (P10636 561-689): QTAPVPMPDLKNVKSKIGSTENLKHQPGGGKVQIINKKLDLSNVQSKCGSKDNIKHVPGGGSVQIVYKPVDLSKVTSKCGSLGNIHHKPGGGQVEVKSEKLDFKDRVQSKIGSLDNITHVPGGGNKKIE

human Tau fragment Tau244–372 (from UniProt P10636-8 244-372) (domain or fragment)
lag time of Tau244–372 fibrillization (ThT, 37°C), 0–20 µM abb’xa’ (184 min without PDI); value at 20 µM [1]: 247 min | rate constant k for the growth of Tau244–372 fibrils (ThT), 0–20 µM abb’xa’ (falls from 36.7 without PDI); value at 20 µM [1]: 0.0233 min⁻¹ | t m of Tau244–372 fibrillization (ThT), 0–20 µM abb’xa’ (238.3 min without PDI); value at 20 µM [1]: 333 min | lag time of Tau244–372 fibrillization (ThT, 37°C), 0–20 µM domain a (184 min without PDI); value at 20 µM [2]: 253 min | rate constant k for the growth of Tau244–372 fibrils (ThT), 0–20 µM domain a (falls from 36.7 without PDI); value at 20 µM [2]: 0.0176 min⁻¹ | t m of Tau244–372 fibrillization (ThT), 0–20 µM domain a (238.3 min without PDI); value at 20 µM [2]: 366 min | lag time of Tau244–372 fibrillization (ThT) with 100 g/l Ficoll 70, 20 µM full-length PDI (∼0 without PDI) [3]: 44.8 min | lag time of Tau244–372 fibrillization (ThT, 37°C, 10 µM Tau244–372, heparin, 1 mM DTT), 0–20 µM full-length PDI (184 min without PDI); value at 20 µM [3]: 242 min | rate constant k for the growth of Tau244–372 fibrils (ThT) with 100 g/l Ficoll 70, 20 µM full-length PDI (54.9 without PDI) [3]: 0.0314 min⁻¹ | rate constant k for the growth of Tau244–372 fibrils (ThT), 0–20 µM full-length PDI (falls from 36.7 without PDI); value at 20 µM [3]: 0.0224 min⁻¹ | t m (time to 50% of maximal ThT fluorescence) of Tau244–372 fibrillization, 0–20 µM full-length PDI (238.3 min without PDI); value at 20 µM [3]: 331 min | t m of Tau244–372 fibrillization (ThT) with 100 g/l Ficoll 70, 20 µM full-length PDI (11.6 min without PDI) [3]: 108 min | Kd [4]: 7.35 µM | dH [4]: -24.7 kJ/mol | stoichiometry N [4]: 0.97 | Kd [5]: 0.48 µM | dH [5]: -16.7 kJ/mol | stoichiometry N [5]: 0.489 | Kd [6]: 3.46 µM | dH [6]: -36 kJ/mol | stoichiometry N [6]: 0.8 | Kd [7]: 1.34 µM | dH [7]: -18.2 kJ/mol | stoichiometry N [7]: 0.56 | Kd [8]: 4.83 µM | dH [8]: -38.8 kJ/mol | stoichiometry N [8]: 1.02
